Experimental data reported in article PMC3119699, “Characterizing the Role of Cell-Wall β-1,3-Exoglucanase Xog1p in Candida albicans Adhesion by the Human Antimicrobial Peptide LL-37” (PLoS ONE, 2011).
No end group written: not given here.

T1: Xog1p, cell-wall β-1,3-exoglucanase of C. albicans (endogenous) (C. albicans (endogenous in SC5314)) (UniProt P29717)
T1 sequence: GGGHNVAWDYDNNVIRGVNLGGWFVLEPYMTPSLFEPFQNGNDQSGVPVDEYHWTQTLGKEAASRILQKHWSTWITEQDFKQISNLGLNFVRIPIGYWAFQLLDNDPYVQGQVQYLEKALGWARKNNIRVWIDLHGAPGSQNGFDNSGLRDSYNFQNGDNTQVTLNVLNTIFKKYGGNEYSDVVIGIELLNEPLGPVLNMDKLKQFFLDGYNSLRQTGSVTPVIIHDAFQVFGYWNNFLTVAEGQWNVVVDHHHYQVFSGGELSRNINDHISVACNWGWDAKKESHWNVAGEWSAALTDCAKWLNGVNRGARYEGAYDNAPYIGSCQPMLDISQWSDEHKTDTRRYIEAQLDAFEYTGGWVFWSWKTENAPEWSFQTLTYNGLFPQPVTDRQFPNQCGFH

T2: soluble His-tagged recombinant Xog1p (rXog1p) (C. albicans, UniProt P29717 41-438)
T2 construct: An initiator Met comes from the NdeI site; No tag removal is described; also called full-length rXog1p; not shown: His tag (detected with anti-His6)
T2 sequence: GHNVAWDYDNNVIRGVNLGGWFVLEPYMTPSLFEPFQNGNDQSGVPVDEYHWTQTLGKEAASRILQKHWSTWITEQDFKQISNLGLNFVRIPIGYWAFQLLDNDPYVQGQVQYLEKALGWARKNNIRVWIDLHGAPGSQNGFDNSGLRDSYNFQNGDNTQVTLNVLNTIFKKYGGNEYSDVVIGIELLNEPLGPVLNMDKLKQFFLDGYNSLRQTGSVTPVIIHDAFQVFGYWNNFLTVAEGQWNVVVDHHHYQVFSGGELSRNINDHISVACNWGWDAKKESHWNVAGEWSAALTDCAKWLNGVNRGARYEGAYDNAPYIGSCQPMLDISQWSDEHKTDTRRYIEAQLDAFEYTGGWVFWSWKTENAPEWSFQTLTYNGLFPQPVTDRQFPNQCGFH

T3: Xog1_(90–115) (residues 90–115 from Xog1p) (C. albicans)
T3 construct: Residues 90–115 of C. albicans cell-wall β-1,3-exoglucanase Xog1p; also called Xog1p_(90–115); source: synthetic peptide (MDBio, Inc.)
T3 peptide: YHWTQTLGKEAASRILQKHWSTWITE

B1: biotinylated LL-37 (BA-LL37) (peptide)
peptide: LLGDFFRKSKEKIGKEFKRIVQRIKDFLRNLVPRTES
modifications: also: biotinylated (site not given here)
notes: LL-37, the mature 37-residue C-terminal peptide cut from human cathelicidin by proteinase-3; biotinylated; Detected or captured by its biotin (SA-HRP, SA-DTAF, streptavidin-agarose); source: synthetic peptide (MDBio, Inc.), 95% pure

Key:
[1] = target: T1, Xog1p, cell-wall β-1,3-exoglucanase of C. albicans (endogenous) (C. albicans (endogenous in SC5314))
[2] = target: T2, soluble His-tagged recombinant Xog1p …; assay: pull-down; streptavidin-agarose, BA-LL37 (bait) and purified rXog1p in TBS, room temperature 2 h; six washes with TBS; Tricine SDS-PAGE, Coomassie Blue; conditions: both partners purified
[3] = target: T3, Xog1_(90–115) (residues 90–115 from …); assay: ELISA; Xog1_(90–115) (5 µg) coated on wells; BA-LL37 0.01–5 µg/ml in 0.1% TBST, room temperature 1 h; SA-HRP, A450; conditions: both partners purified

Row | Binder | inhibition of C. albicans adhesion to polystyrene (XTT reduction) at 5 µg/ml (∼1.1 µM) LL-37 [1] [%] | binding result [2] | binding result [3]
1 | LLGDFFRKSKEKIGKEFKRIVQRIKDFLRNLVPRTES [LL-37 (human cathelicidin antimicrobial peptide)] | 70 | – | –
2 | B1 | – | binds | binds
